Columns and labels:
mStau2 dsRBD3-4 [1] = target: T1, mStau2 dsRBD3-4 (Mus musculus, UniProt Q8CJ67 207-375); assay: EMSA; Kd micromolar; SPR: HBS-EP (10 mM HEPES pH 7.4, 150 mM NaCl, 3 mM EDTA, 0.005% P20); EMSA: 5 nM RNA, protein buffer (40 mM Bis-Tris pH 7, 150 mM NaCl, 2 mM DTT presumed), 4% glycerol, 30 ug/mL yeast tRNA, RT; NMR: 150 mM NaCl, 20 mM Na phosphate pH 7.0, 5 mM DTT, 298 K; conditions: protein: recombinant; tags: HisSUMO removed; label: 5' 32P; hairpin, 3' ss extension
T1 sequence: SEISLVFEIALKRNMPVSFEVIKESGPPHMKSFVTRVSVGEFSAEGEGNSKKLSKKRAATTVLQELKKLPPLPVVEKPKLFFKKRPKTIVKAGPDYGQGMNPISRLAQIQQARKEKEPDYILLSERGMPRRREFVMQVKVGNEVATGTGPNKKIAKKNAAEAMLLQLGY

mStau2 dsRBD1-2 [2] = target: T2, mStau2 dsRBD1-2 (Mus musculus, UniProt Q8CJ67 8-181); assay: as above; conditions: protein: recombinant; tags: HisSUMO removed; label: 5' 32P; hairpin, 3' ss extension
T2 sequence: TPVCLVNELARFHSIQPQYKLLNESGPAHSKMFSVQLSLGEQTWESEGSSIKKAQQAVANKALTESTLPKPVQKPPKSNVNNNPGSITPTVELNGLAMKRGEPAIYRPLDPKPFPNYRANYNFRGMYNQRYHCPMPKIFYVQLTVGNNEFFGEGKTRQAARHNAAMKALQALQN

mStau2 full-length = target: T3, mStau2 full-length (Mus musculus, UniProt Q8CJ67 1-570); assay: EMSA; Kd low micromolar; SPR: HBS-EP (10 mM HEPES pH 7.4, 150 mM NaCl, 3 mM EDTA, 0.005% P20); EMSA: 5 nM RNA, protein buffer (40 mM Bis-Tris pH 7, 150 mM NaCl, 2 mM DTT presumed), 4% glycerol, 30 ug/mL yeast tRNA, RT; NMR: 150 mM NaCl, 20 mM Na phosphate pH 7.0, 5 mM DTT, 298 K; conditions: protein: recombinant; tags: HisSUMO; label: 5' 32P; hairpin
T3 sequence: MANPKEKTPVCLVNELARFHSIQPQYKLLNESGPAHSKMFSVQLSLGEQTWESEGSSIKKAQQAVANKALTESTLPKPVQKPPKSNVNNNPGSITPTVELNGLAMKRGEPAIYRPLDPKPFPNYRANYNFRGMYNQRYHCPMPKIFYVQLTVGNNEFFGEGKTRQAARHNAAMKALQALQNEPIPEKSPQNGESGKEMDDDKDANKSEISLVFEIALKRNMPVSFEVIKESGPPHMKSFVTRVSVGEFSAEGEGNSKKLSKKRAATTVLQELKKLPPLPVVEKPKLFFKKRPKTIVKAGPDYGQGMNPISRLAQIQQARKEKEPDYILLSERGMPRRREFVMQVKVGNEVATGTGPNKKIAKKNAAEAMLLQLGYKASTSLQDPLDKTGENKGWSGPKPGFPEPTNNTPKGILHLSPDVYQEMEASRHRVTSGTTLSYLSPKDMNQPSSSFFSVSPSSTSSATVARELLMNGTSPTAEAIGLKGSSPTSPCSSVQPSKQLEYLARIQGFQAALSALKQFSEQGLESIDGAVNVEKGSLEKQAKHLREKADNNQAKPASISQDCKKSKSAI

mStau2 dsRBD3 = target: T4, mStau2 dsRBD3 (Mus musculus, UniProt Q8CJ67 207-274); assay: EMSA; up to 5 uM; SPR: HBS-EP (10 mM HEPES pH 7.4, 150 mM NaCl, 3 mM EDTA, 0.005% P20); EMSA: 5 nM RNA, protein buffer (40 mM Bis-Tris pH 7, 150 mM NaCl, 2 mM DTT presumed), 4% glycerol, 30 ug/mL yeast tRNA, RT; NMR: 150 mM NaCl, 20 mM Na phosphate pH 7.0, 5 mM DTT, 298 K; conditions: protein: recombinant; label: 5' 32P; hairpin
T4 sequence: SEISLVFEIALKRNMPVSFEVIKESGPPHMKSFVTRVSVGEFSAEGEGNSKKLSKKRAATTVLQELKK

mStau2 dsRBD1-2 [3] = target: T2, mStau2 dsRBD1-2; assay: EMSA; comparable with dsRBD3-4; SPR: HBS-EP (10 mM HEPES pH 7.4, 150 mM NaCl, 3 mM EDTA, 0.005% P20); EMSA: 5 nM RNA, protein buffer (40 mM Bis-Tris pH 7, 150 mM NaCl, 2 mM DTT presumed), 4% glycerol, 30 ug/mL yeast tRNA, RT; NMR: 150 mM NaCl, 20 mM Na phosphate pH 7.0, 5 mM DTT, 298 K; conditions: protein: recombinant; tags: HisSUMO removed; label: 5' 32P; hairpin
mStau2 dsRBD3-4 [4] = target: T1, mStau2 dsRBD3-4; assay: EMSA; SPR: HBS-EP (10 mM HEPES pH 7.4, 150 mM NaCl, 3 mM EDTA, 0.005% P20); EMSA: 5 nM RNA, protein buffer (40 mM Bis-Tris pH 7, 150 mM NaCl, 2 mM DTT presumed), 4% glycerol, 30 ug/mL yeast tRNA, RT; NMR: 150 mM NaCl, 20 mM Na phosphate pH 7.0, 5 mM DTT, 298 K; conditions: protein: recombinant; tags: HisSUMO removed; label: 5' 32P; hairpin
mStau2 dsRBD4 = target: T5, mStau2 dsRBD4 (Mus musculus, UniProt Q8CJ67 307-375); assay: EMSA; binds at micromolar concentrations; SPR: HBS-EP (10 mM HEPES pH 7.4, 150 mM NaCl, 3 mM EDTA, 0.005% P20); EMSA: 5 nM RNA, protein buffer (40 mM Bis-Tris pH 7, 150 mM NaCl, 2 mM DTT presumed), 4% glycerol, 30 ug/mL yeast tRNA, RT; NMR: 150 mM NaCl, 20 mM Na phosphate pH 7.0, 5 mM DTT, 298 K; conditions: protein: recombinant; label: 5' 32P; hairpin
T5 sequence: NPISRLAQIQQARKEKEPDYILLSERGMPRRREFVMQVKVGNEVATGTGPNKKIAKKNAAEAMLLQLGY

mStau2 dsRBD3-4 [5] = target: T1, mStau2 dsRBD3-4; assay: EMSA; almost abolished; no complex observed; SPR: HBS-EP (10 mM HEPES pH 7.4, 150 mM NaCl, 3 mM EDTA, 0.005% P20); EMSA: 5 nM RNA, protein buffer (40 mM Bis-Tris pH 7, 150 mM NaCl, 2 mM DTT presumed), 4% glycerol, 30 ug/mL yeast tRNA, RT; NMR: 150 mM NaCl, 20 mM Na phosphate pH 7.0, 5 mM DTT, 298 K; conditions: protein: recombinant; tags: HisSUMO removed; label: 5' 32P; hairpin, 3' ss extension
mStau2 dsRBD1-2 [6] = target: T2, mStau2 dsRBD1-2; assay: as above; conditions: protein: recombinant; tags: HisSUMO removed; label: 5' 32P; hairpin, 3' ss extension

Binder | binding result (mStau2 dsRBD3-4 [1]) | binding result (mStau2 dsRBD1-2 [2]) | binding result (mStau2 full-length) | other results
GGACAUGCAAUUUGUGUAUGUAUAUA (structured_RNA) [8 bp SRS2 stem-loop (7bpSRS2+5)] | binds | binds | – | –
GGGUUCCGUCAAGCCACUGGGUCUUGAUGGAGC (structured_RNA) [Rgs4 SRS1] | – | – | binds | –
GGGACAUGCACAUGCAAUUUGUGUAUGUGUAUGU (structured_RNA) [Rgs4 SRS2 (EMSA transcript)] | – | – | binds | binding result (mStau2 dsRBD3): no binding; binding result (mStau2 dsRBD1-2 [3]): binds; binding result (mStau2 dsRBD3-4 [4]): binds; binding result (mStau2 dsRBD4): binds
GGACAUGCACAAUUUGUGUGUAUGUAUAUA (structured_RNA) [10 bp SRS2 stem-loop (9bpSRS2+5)] | binds | binds | – | –
GGACAUGCAUUUGGUAUGUAUAUA (structured_RNA) [7 bp SRS2 stem-loop (6bpSRS2+5)] | – | – | – | binding result (mStau2 dsRBD3-4 [5]): no binding; binding result (mStau2 dsRBD1-2 [6]): no binding
GGACAUGCACAUGAUUUGUAUGUGUAUGUAUAUA (structured_RNA) [12 bp SRS2 stem-loop (11bpSRS2+5)] | binds | binds | – | –

— article PMC6477676, “Staufen2-mediated RNA recognition and localization requires combinatorial action of multiple domains”
